Experimental data as given in patent US20240158499A1 (Janssen / Centocor, published 2024).

Key:
[1] = molecular target: T1, extracellular domain (ECD) of human CD79B isoform 1, CD9W7 (human); assay: SPR; hCD79B-long
T1 construct: It also carries C-terminal tag residues ending in a 6xHis tag; also called CD79b long isoform; hCD79B-long
T1 chain: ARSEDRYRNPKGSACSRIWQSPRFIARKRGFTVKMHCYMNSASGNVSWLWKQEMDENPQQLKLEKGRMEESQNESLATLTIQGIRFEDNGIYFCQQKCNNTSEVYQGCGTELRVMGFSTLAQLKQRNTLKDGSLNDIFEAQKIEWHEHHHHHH

[2] = molecular target: T2, extracellular domain (ECD) of human CD79B isoform 2, CD9W8 (human); assay: SPR; hCD79B-short
T2 construct: It also carries C-terminal tag residues ending in a 6xHis tag; also called CD79b short isoform; hCD79B-short
T2 chain: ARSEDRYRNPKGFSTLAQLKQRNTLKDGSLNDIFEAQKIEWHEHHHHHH

B1: CD9B1256 (antibody, V domains shown)
VH: EVQLVESGPGLVEPSETLSLTCTVSGGSISSYYWSWIRQPAGKGLEWIGRIYSSGSTNYNPSLKSRVTMSVDTSENQFSLNLNSVTAADTAKYYCARGEYSGDLGGYGLDVWGQGTMVTVSS
VL: EIVMTQSPLSLSVTPGEPASISCRSSQSLLDSDDGNTYLDWYLQKPGQSPQLLIQTLSYRASGVPDRFSGRGSGTDFTLKISRVEAEDVGIYYCMQRMEFPLTFGGGTKVDIKR
notes: also called VR000056263
Kd [1]: 0.78 nM | Kd [2]: 2.21 nM
